Data from patent US20150196656A1 (IGF ONCOLOGY, published 2015).

Assays:
type 1 IGF receptor = target: T1, type 1 IGF receptor (human, UniProt P08069 31-1367); test: competition binding to IGF receptors against radioactive wild type IGF; approximate KD
T1 construct: whole, on cells; also called IGF-1 receptor; IGF-1R
Method: 200 ul of each of these was mixed rapidly with 1.8 ml of refold buffer. Refold buffer was 1.4 M urea, 100 mM glycine, 0.5 M NaCl, 19% ethanol, 0.5 mM GSSG, 4 mM GSH, pH 9.5.

dihydrofolate reductase = test: cell-based or functional assay; parameters: unit not given beside the values

T1 sequence (P08069 31-1367): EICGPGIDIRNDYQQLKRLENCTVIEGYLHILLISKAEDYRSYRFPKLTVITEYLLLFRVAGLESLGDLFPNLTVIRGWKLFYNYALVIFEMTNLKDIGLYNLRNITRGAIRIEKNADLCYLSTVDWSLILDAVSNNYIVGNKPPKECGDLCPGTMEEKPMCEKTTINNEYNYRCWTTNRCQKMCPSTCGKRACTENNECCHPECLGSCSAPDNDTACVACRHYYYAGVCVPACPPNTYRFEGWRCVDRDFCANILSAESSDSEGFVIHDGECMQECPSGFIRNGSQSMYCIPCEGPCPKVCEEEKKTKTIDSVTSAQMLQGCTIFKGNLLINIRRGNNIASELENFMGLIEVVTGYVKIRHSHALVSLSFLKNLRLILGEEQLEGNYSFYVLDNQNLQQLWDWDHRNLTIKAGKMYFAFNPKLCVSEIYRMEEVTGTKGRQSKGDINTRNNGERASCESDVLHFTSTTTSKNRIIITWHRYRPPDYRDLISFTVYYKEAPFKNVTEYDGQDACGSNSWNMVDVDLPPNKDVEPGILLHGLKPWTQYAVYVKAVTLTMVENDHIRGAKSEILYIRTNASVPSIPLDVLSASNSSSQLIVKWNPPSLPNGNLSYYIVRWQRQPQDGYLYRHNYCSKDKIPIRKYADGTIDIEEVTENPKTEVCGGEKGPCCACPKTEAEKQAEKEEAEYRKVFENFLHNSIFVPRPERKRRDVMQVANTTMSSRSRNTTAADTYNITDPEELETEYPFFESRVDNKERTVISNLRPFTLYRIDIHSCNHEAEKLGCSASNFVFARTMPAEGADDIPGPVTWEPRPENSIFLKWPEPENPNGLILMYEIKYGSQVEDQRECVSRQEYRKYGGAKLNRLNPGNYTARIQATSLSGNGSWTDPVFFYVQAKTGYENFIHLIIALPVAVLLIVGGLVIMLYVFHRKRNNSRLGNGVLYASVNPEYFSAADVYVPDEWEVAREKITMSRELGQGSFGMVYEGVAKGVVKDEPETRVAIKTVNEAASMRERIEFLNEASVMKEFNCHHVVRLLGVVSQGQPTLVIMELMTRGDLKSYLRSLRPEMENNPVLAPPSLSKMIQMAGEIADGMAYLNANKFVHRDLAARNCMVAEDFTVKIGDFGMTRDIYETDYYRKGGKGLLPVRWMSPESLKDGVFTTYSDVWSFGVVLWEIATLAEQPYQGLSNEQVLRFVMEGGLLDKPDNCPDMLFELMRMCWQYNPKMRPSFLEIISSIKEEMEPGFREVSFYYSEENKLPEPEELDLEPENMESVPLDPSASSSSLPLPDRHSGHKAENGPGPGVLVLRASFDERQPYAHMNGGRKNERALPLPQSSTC

Row | Binder | Kd (type 1 IGF receptor) [nM] | IC50 (inhibition of dihydrofolate reductase) (dihydrofolate reductase)
1 | 764IGF (ligand, also called His6-K5-IGF132) MVKGKHHHHHHNGKGKSKFVNQHLCGSHLVEALYLVCGDRGFYFNKPTGYGSSSRRAPQTGIVDECCFRSCDLRRLEMYCAPLKPAKSA | ~100 | –
2 | 785IGF (ligand, also called mutTrx-IGF132) MVKQIESKTAFQEALDAAGDKLVVVDFSATWCGHCKMIKPFFHSLSEKYSNVIFLEVDVDDSQDVASESEVKSMPTFQFFKKGQKVGEFSGANKEKLEATINELVGSKSGHHHHHHSAKGFVNQHLCGSHLVEALYLVCGDRGFYFNKPTGYGSSSRRAPQTGIVDECCFRSCDLRRLEMYCAPLKPAKSA | ~40 | –
3 | LR3IGF-MTX (other, methotrexate attached to amino groups; MTX:protein ratio of 2.8) MFPAMPLSSLFVNGPRTLCGALVDALQFVCGDRGFYFNKPTGYGSSSRRAPQTGIVDECCFRSCDLRRLEMYCAPLKPAKSEA | – | 99
4 | 403IGF (ligand, also called His6-IGF) MTSGHHHHHHSAGVNGFVNQHLCGSHLVEALYLVCGDRGFYFNKPTGYGSSSRRAPQTGIVDECCFRSCDLRRLEMYCAPLKPAKSA | ~2 | –
